Measured values published in paper PMC7343156, “Purification and characterization of a novel medium-chain ribitol dehydrogenase from a lichen-associated bacterium Sphingomonas sp” (PLoS ONE, 2020).

Key:
purified protein [1] = substrate: NC(=O)c1ccc[n+]([C@@H]2O[C@H](COP(=O)(O)OP(=O)(O)OC[C@H]3O[C@@H](n4cnc5c(N)ncnc54)[C@H](O)[C@@H]3O)[C@@H](O)[C@H]2O)c1; assay: purified protein; assay type: biochemical, Sphingomonas sp. PAMC 26621; conditions: 10-160 mM D-ribitol, NAD+ 0.05-1 mM, 100 mM potassium phosphate pH 8.0, 25°C, no added metal, varied: cofactor
purified protein [2] = substrate: OC[C@@H](O)[C@@H](O)[C@@H](O)CO; assay: purified protein; assay type: biochemical, Sphingomonas sp. PAMC 26621; conditions: 10-160 mM D-ribitol, NAD+ 0.05-1 mM, 100 mM potassium phosphate pH 8.0, 25°C, no added metal

B1: SpRDH (Sphingomonas sp. PAMC 26621) (protein)
chain: MTQKTMTAVVCHGPKDYRVEEIAHPTAGALEFVIRVTACGICASDCKCWSGAKMFWGDDPWVKAPVVPGHEFFGVVDELGEGAGEHFGVAVGDRVIAEQIVPCERCRYCRSGQYWMCEVHNIFGFQRLVADGGMAQFMRLPRTSRVHLIPAEIPDDDAVIIEPLACALHTVRRGTIGFEDVVVIAGAGPIGLMMVQAARLQTPRKLVVIDMVPERLALATTFGADVVINPATDDALAIVHGLTDGYGCDVYIEATGSPAGVVQGLNLIRRLGRFVEFSVFGSDTTVDWSIIGDRKELDVRGAHLGPYCYPIAIDLLSRGLITSNGIVTHRFPLIQWAEAIAVADSLESIKVVLSPST
notes: native enzyme purified from Sphingomonas sp; PAMC 26621 grown on D-ribitol; untagged; identified by MALDI-TOF/TOF
With B1 the Km (purified protein [1]) was 0.3 ± 0.02 mM, the kcat (purified protein [1]) was 29 ± 0.7 s⁻¹ and the Km (purified protein [2]) was 8.5 ± 1.2 mM. It also gave a kcat (purified protein [2]) of 29 ± 0.7 s⁻¹ and a kcat/Km (purified protein [2]) of 3500 M⁻¹ s⁻¹.
